Measured values: US8092810B2, “Use of polypeptides having antimicrobial activity” (Novozymes A/S, priority 2006, dated 2012)

Columns and labels:
[1] = tested on: gram-positive bacterial strains; assay: MIC assay, summary over gram-positive strains; type: cell-based; conditions: a number of gram-positive strains, with the exception of certain strains of Staphylococcus
Protocol: (§1) Briefly, the MIC was determined by microbroth dilution assay in a 96 well plate. 4-5 colonies of each bacterium tested were added to 5 ml of MHB, placed in a 35° C. shaker until the OD 600 nm reached 0.08-0.10. The inoculum was diluted 1:100 and 50 microliters were added to each well which contained 50 microliters of serial two fold dilutions of Lento, vancomycin or ciprofloxacin. Each concentration of antibiotic or Lento was tested in duplicate. The plate was placed at 35° C. overnight. MICs were determined after 24 hours incubation and defined by the well containing the lowest amount of antibiotic with no visible growth.

[2] = tested on: Burkholderia cepacia ATCC 25416; assay: MIC broth microdilution; type: cell-based; conditions: Burkholderia cepacia ATCC 25416, Gram −; MHB, 35° C., 24 hours
[3] = tested on: all bacteria tested (Table 2); assay: MBC versus MIC, bactericidal classification; type: cell-based; conditions: all bacteria tested with the exception of E. faecium ATCC 51559
Protocol: To determine the MBC, 10 microliters from each well with no growth was plated in duplicate and allowed to grow overnight on Mueller-Hinton agar (Difco Catalog number 225250, Becton Dickinson and Company, Sparks, Md., US; 2.0 g beef extract powder, 17.5 g acid digest of casein, 1.5 g starch, 17 g agar—per 1000 ml of water). The MBC is based on the inoculum concentration, which was determined by plating in duplicate 50 microliters of 10^−2, 10^−3, and 10^−4 of the inoculum used for MICs. MBCs were determined as described by the NCCLS guidelines (cited above). The MBC is the concentration of the tested compound that kills 99.9% of the microorganism inoculated into the well.
Based on this definition, Lento is bactericidal against all bacteria tested with the exception of E. faecium ATCC 51559.

[4] = tested on: Staphylococcus aureus ATCC 29737; assay: MBC determination; type: cell-based; conditions: concentration that kills 99.9%
Protocol: as §1
(§2) MBCs were determined as described by the NCCLS guidelines (cited above).

[5] = tested on: Enterococcus faecalis (VRE) ATCC 51299; assay: MBC determination; type: cell-based; conditions: concentration that kills 99.9%
Protocol: as §1, §2

[6] = tested on: Enterococcus faecium ATCC 51559; assay: MBC determination; type: cell-based; conditions: concentration that kills 99.9%
Protocol: as §1, §2

[7] = tested on: Micrococcus luteus ATCC 9341; assay: MBC determination; type: cell-based; conditions: concentration that kills 99.9%
Protocol: as §1, §2

[8] = Thermostability by Differential Scanning calorimetry (DSC); type: physicochemical
Protocol: Differential Scanning calorimetry (DSC) was used to determine temperature stability of the Lento protein at pH 2.5, 4.0 and 7.0. Purified Lento in a concentration of about 2 mg/ml was dialysed over night at 4° C. against appropriate buffer and run on a VP-DSC instrument (MicroCal) with a constant scan rate of 1.5° C./min from 20 to 90° C. Data-handling was performed using the MicroCal Origin software (version 4.10), and denaturation temperature was defined as temperature at the apex of the enthalpy peak. […] In 10 mM sodium acetate, 50 mM NaCl, pH 4.0, Lento denatured at 69° C., and in 10 mM sodium phosphate, 50 mM NaCl, pH 7.0 the denaturation temperature was 60° C.

[9] = tested on: Streptococcus pneumoniae (PSRSP) ATCC 700671; assay: MIC broth microdilution; type: cell-based; conditions: Streptococcus pneumoniae (PSRSP) ATCC 700671, Gram +; MHB, 35° C., 24 hours
Protocol: as §1

[10] = tested on: Staphylococcus aureus ATCC 29737; assay: MIC broth microdilution; type: cell-based
Protocol: as §1

[11] = tested on: Corynebacterium jeikeium ATCC 43216; assay: MIC broth microdilution; type: cell-based; conditions: Corynebacterium jeikeium ATCC 43216, Gram +; MHB, 35° C., 24 hours
Protocol: as §1

[12] = tested on: Enterococcus faecalis (VRE) ATCC 51299; assay: MIC broth microdilution; type: cell-based
Protocol: as §1

[13] = tested on: Staphylococcus aureus ATCC 29213; assay: MIC broth microdilution; type: cell-based; conditions: Staphylococcus aureus ATCC 29213, Gram +; MHB, 35° C., 24 hours
Protocol: as §1

[14] = tested on: Bacillus cereus ATCC 4342; assay: MIC broth microdilution; type: cell-based
Protocol: as §1

[15] = tested on: Enterococcus faecium ATCC 51559; assay: MIC broth microdilution; type: cell-based
Protocol: as §1

[16] = tested on: Streptococcus pneumoniae (TCRSP) ATCC 700902; assay: MIC broth microdilution; type: cell-based; conditions: Streptococcus pneumoniae (TCRSP) ATCC 700902, Gram +; MHB, 35° C., 24 hours
Protocol: as §1

[17] = tested on: Streptococcus pneumoniae ATCC 49619; assay: MIC broth microdilution; type: cell-based; conditions: Streptococcus pneumoniae ATCC 49619, Gram +; MHB, 35° C., 24 hours
Protocol: as §1

[18] = tested on: Micrococcus luteus ATCC 9341; assay: MIC broth microdilution; type: cell-based
Protocol: as §1

[19] = tested on: Shigella dysenteriae ATCC 11835; assay: MIC broth microdilution; type: cell-based; conditions: Shigella dysenteriae ATCC 11835, Gram −; MHB, 35° C., 24 hours
Protocol: as §1

[20] = tested on: Corynebacterium jeikeium ATCC 43734; assay: MIC broth microdilution; type: cell-based; conditions: Corynebacterium jeikeium ATCC 43734, Gram +; MHB, 35° C., 24 hours
Protocol: as §1

[21] = tested on: Staphylococcus epidermidis ATCC 12228; assay: MIC broth microdilution; type: cell-based; conditions: Staphylococcus epidermidis ATCC 12228, Gram +; MHB, 35° C., 24 hours
Protocol: as §1

[22] = tested on: Streptococcus pneumoniae ATCC 700676; assay: MIC broth microdilution; type: cell-based; conditions: Streptococcus pneumoniae ATCC 700676, Gram +; MHB, 35° C., 24 hours
Protocol: as §1

[23] = tested on: gram-negative bacterial strains; assay: MIC assay, summary over gram-negative strains; type: cell-based; conditions: gram-negative bacterial strains of Table 1
Protocol: as §1

[24] = tested on: Bacillus cereus ATCC 4342; assay: MBC determination; type: cell-based; conditions: concentration that kills 99.9%
Protocol: Minimal inhibitory concentrations (MIC) and minimal bactericidal concentrations (MBC) were determined by broth microdilution in MHB as described by the NCCLS (National Committee for Clinical Laboratory Standards, in: Methods for Determining Bactericidal Activity of Antimicrobial Agents; Approved Guideline. National Committee for Clinical Laboratory Standards (M26-A), Vol. 19, 1999).
Briefly, the MIC was determined by microbroth dilution assay in a 96 well plate. 4-5 colonies of each bacterium tested were added to 5 ml of MHB, placed in a 35° C. shaker until the OD 600 nm reached 0.08-0.10. […] MICs were determined after 24 hours incubation and defined by the well containing the lowest amount of antibiotic with no visible growth.
To determine the MBC, 10 microliters from each well with no growth was plated in duplicate and allowed to grow overnight on Mueller-Hinton agar (Difco Catalog number 225250, Becton Dickinson and Company, Sparks, Md., US; 2.0 g beef extract powder, 17.5 g acid digest of casein, 1.5 g starch, 17 g agar—per 1000 ml of water). The MBC is based on the inoculum concentration, which was determined by plating in duplicate 50 microliters of 10^−2, 10^−3, and 10^−4 of the inoculum used for MICs. MBCs were determined as described by the NCCLS guidelines (cited above). […]

B1: Lento: Bacillus licheniformis polypeptide having amino acids 1-85 of SEQ ID NO: 2, purified from ATCC 14580 fermentation broth (protein)
chain: MKNHLYEKKKRKPLTRTIKATLAVLTMSIALVGGATVPSFAWVNPGYHYQYPSEGGTWRYGFVNAGLRSEYNHPTKVHGSTVQKL
modifications: Bacillus licheniformis ATCC 14580
- antimicrobial effect on gram-positive bacterial strains [1]: pronounced antimicrobial effect
- MIC [2]: >256 microgram/ml
- bactericidal (MBC within four fold of the MIC) [3]: bactericidal
- MBC [4]: 32 microgram/ml
- MBC [5]: 64 microgram/ml
- MBC [6]: >64 microgram/ml
- MBC [7]: 8 microgram/ml
- denaturation temperature (DSC) ([8]; 10 mM citric acid, 50 mM sodium chloride, pH 2.5): 55 °C
- denaturation temperature (DSC) ([8]; 10 mM sodium acetate, 50 mM NaCl, pH 4.0): 69 °C
- denaturation temperature (DSC) ([8]; 10 mM sodium phosphate, 50 mM NaCl, pH 7.0): 60 °C
- MIC [9]: 2 microgram/ml
- MBC ([10]; Staphylococcus aureus ATCC 29737, Gram +, MHB, 35° C., 24 hours): 8-32 microgram/ml
- MBC ([10]; Table 2 (MBC results), Staphylococcus aureus ATCC 29737): 32 microgram/ml
- MIC [11]: 0.125 microgram/ml
- MIC ([12]; Enterococcus faecalis (VRE) ATCC 51299, Gram +, MHB, 35° C., 24 hours): 8 microgram/ml
- MIC ([12]; Table 2 (MBC results), Enterococcus faecalis (VRE) ATCC 51299): 64 microgram/ml
- MIC [13]: 64 microgram/ml
- MIC ([14]; Bacillus cereus ATCC 4342, Gram +, MHB, 35° C., 24 hours): 0.5-1 microgram/ml
- MIC ([14]; Table 2 (MBC results), Bacillus cereus ATCC 4342): 1 microgram/ml
- MIC ([15]; Enterococcus faecium ATCC 51559, Gram +, MHB, 35° C., 24 hours): 4 microgram/ml
- MIC ([15]; Table 2 (MBC results), Enterococcus faecium ATCC 51559): 4 microgram/ml
- MIC [16]: 4-8 microgram/ml
- MIC [17]: 1-2 microgram/ml
- MBC ([18]; Micrococcus luteus ATCC 9341, Gram +, MHB, 35° C., 24 hours): 8 microgram/ml
- MBC ([18]; Table 2 (MBC results), Micrococcus luteus ATCC 9341): 8 microgram/ml
- MIC [19]: >256 microgram/ml
- MIC [20]: 2 microgram/ml
- MIC [21]: 128 microgram/ml
- MIC [22]: 4 microgram/ml
- antimicrobial effect on gram-negative bacterial strains [23]: uncertain if any antimicrobial effect
- MBC [24]: 1 microgram/ml
